Measurements: paper PMC12835413, “Allosteric zinc inhibition and interdomain regulation govern the catalytic mechanism of the E3-independent ubiquitin-conjugating enzyme hUBE2O” (The Journal of Biological Chemistry, 2025)

Molecular target: the molecule itself
Assay: SEC-MALS; 100 ul of 2 mg/ml purified Flag-UBE2O-TwinStrep on Superdex 200 Increase 5/150 GL; 50 mM Tris-HCl pH 7.4, 200 mM NaCl, 0.5 mM TCEP

B1: Flag-UBE2O-TwinStrep (purified recombinant Homo sapiens UBE2O) (enzyme, human, UniProt Q9C0C9 1-1292, looked up)
chain: MADPAAPTPAAPAPAQAPAPAPEAVPAPAAAPVPAPAPASDSASGPSSDSGPEAGSQRLLFSHDLVSGRYRGSVHFGLVRLIHGEDSDSEGEEEGRGSSGCSEAGGAGHEEGRASPLRRGYVRVQWYPEGVKQHVKETKLKLEDRSVVPRDVVRHMRSTDSQCGTVIDVNIDCAVKLIGTNCIIYPVNSKDLQHIWPFMYGDYIAYDCWLGKVYDLKNQIILKLSNGARCSMNTEDGAKLYDVCPHVSDSGLFFDDSYGFYPGQVLIGPAKIFSSVQWLSGVKPVLSTKSKFRVVVEEVQVVELKVTWITKSFCPGGTDSVSPPPSVITQENLGRVKRLGCFDHAQRQLGERCLYVFPAKVEPAKIAWECPEKNCAQGEGSMAKKVKRLLKKQVVRIMSCSPDTQCSRDHSMEDPDKKGESKTKSEAESASPEETPDGSASPVEMQDEGAEEPHEAGEQLPPFLLKEGRDDRLHSAEQDADDEAADDTDDTSSVTSSASSTTSSQSGSGTSRKKSIPLSIKNLKRKHKRKKNKITRDFKPGDRVAVEVVTTMTSADVMWQDGSVECNIRSNDLFPVHHLDNNEFCPGDFVVDKRVQSCPDPAVYGVVQSGDHIGRTCMVKWFKLRPSGDDVELIGEEEDVSVYDIADHPDFRFRTTDIVIRIGNTEDGAPHKEDEPSVGQVARVDVSSKVEVVWADNSKTIILPQHLYNIESEIEESDYDSVEGSTSGASSDEWEDDSDSWETDNGLVEDEHPKIEEPPIPPLEQPVAPEDKGVVISEEAATAAVQGAVAMAAPMAGLMEKAGKDGPPKSFRELKEAIKILESLKNMTVEQLLTGSPTSPTVEPEKPTREKKFLDDIKKLQENLKKTLDNVAIVEEEKMEAVPDVERKEDKPEGQSPVKAEWPSETPVLCQQCGGKPGVTFTSAKGEVFSVLEFAPSNHSFKKIEFQPPEAKKFFSTVRKEMALLATSLPEGIMVKTFEDRMDLFSALIKGPTRTPYEDGLYLFDIQLPNIYPAVPPHFCYLSQCSGRLNPNLYDNGKVCVSLLGTWIGKGTERWTSKSSLLQVLISIQGLILVNEPYYNEAGFDSDRGLQEGYENSRCYNEMALIRVVQSMTQLVRRPPEVFEQEIRQHFSTGGWRLVNRIESWLETHALLEKAQALPNGVPKASSSPEPPAVAELSDSGQQEPEDGGPAPGEASQGSDSEGGAQGLASASRDHTDQTSETAPDASVPPSVKPKKRRKSYRSFLPEKSGYPDIGFPLFPLSKGFIKSIRGVLTQFRAALLEAGMPECTEDK
notes: Homo sapiens UBE2O (ubiquitin-conjugating enzyme E2O), UniProt Q9C0C9, from plasmid pLV-Flag-hUBE2O-TS; also called hUBE2O; Flag-hUBE2O-TwinStrep; source: Expi293F cells, purified; not shown: Flag, N-terminal, kept
Q: How did the “stoichiometry N” value turn out when B1 was run?
A: The value was 2.
